System: MS2 coat protein
Assay: apparent KD of MS2 coat protein; designed switch direction (-1 OFF switch, 1 ON switch): -1; higher = weaker reporter binding
Outline: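 Designed RNA switches sharing common flanks were transcribed on Illumina chips by stalled E. coli RNA polymerase. They were titrated with SNAP-549-labelled MS2 coat protein, from 0.7 or 1.5 nM doubling to 3 µM, in Tris-HCl pH 7.5 buffer with KCl, MgCl2, BSA, DTT, tRNA and Tween-20. Titrations ran without input, with 200 uM small-molecule ligand, or with an oligonucleotide input. The apparent KD of each design is the median over its clusters, after curve-fitting of normalised cluster fluorescence.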

[1] = Eterna round: R95, input ligand: FMN 200 uM
[2] = Eterna round: R95, input ligand: microRNA oligo, concentration not stated
[3] = Eterna round: R95, input ligand: none
[4] = input ligand: microRNA oligo, concentration not stated

Row | Sequence | apparent KD of MS2 coat protein [1] [nM] | apparent KD of MS2 coat protein [2] [nM] | apparent KD of MS2 coat protein [3] [nM] | apparent KD of MS2 coat protein (input ligand: FMN 200 uM) [nM] | apparent KD of MS2 coat protein [4] [nM] | apparent KD of MS2 coat protein (input ligand: none) [nM]
1 | AAGAAACAUGAGGAUCACCCAUGUGAGGAUAUGACGAAGAAAAGAAAAGAAAGAAGAGUCAGAAGGCACAAAGG [salish99-ex1_r3_067] (puzzle: Exclusion 1) | 132 | 100 | 109 |  |  | 
2 | GGUACUAUCACCUGAGUGGUAGUGCAACAAGCUUGUGAUACAUGAGGAUCACCCAUGUCCUCAUUUGCUCGUCUUAU [JL-sv3-2.25 JL mod] (Eterna round: R96, puzzle: Sensor v3, turn-off variant 2) |  |  |  | 237 | 858 | 245
3 | GCACGAAGUGGAGGAUAUCUGGGCGAGGAGCGCAGAGAAGGCCACAUGAGGAUCACCCAUGUUUUCCACGGAUAGCAAACGUGC [exng1 ex2.1] (Eterna round: R96, puzzle: Exclusion NG 1) |  |  |  | 25.5 | 15.2 | 23
4 | UUUCGUGCGCGGGUUUUUUACAUGAGGAUCACCCAUGUCCUCUGCUUGUCUUGUCUUGGGCUUUUUUUGGGUUCGGG [-19.7, -39 kcal, A 8%] (Eterna round: R97, puzzle: Sensor, turn-off variant 1) |  |  |  | 771 |  | 868
5 | AACAAAACGCGAGGAUAUCGCCAACAUGAGGAUCACCCAUGUCACGGGUGCAAAUGUCUUCUAGGCGAGAAGGCGCAUCCAUAC [Diatza] (Eterna round: R96, puzzle: Exclusion NG 2) |  |  |  | 704 | 344 | 641
6 | CCUGGGUCAUCGCCCAGGAACAACAUGAGGAUCACCCAUGUCUAGGAUAUCCACCAGUCAAUAAAGGAGAAGGAGACGGUGGUU [Enusonor] (Eterna round: R96, puzzle: Exclusion NG 3) |  |  |  | 22.9 | 14.6 | 21.2
7 | GUUCUGUCAGGAUAUCAAUCCGCCUGUGAUACGCAGGCGGCUGAGAAGGGACAUGAGGAUCACCCAUGUAAAGA [jl-ex4-4.23 ViennaUCT mod] (Eterna round: R97, puzzle: Exclusion 4) |  |  |  | 74 |  | 41.2
8 | GAAAACGCAGAGGAUAUUUCAGAUCCUAGCUGCAAAGAAGGCUGCACAUGAGGAUCACCCAUGUGGUCCUGAAA [Quesina mod] (Eterna round: R97, puzzle: Exclusion 6) |  |  |  | 116 |  | 38.6
9 | GCGGAUUAUGUAGGAUAUCGGUCAGUUUCUGAUCGAGAAGGACAUGAGGAUCACCCAUGUAAAUUCCUCGCUUUGUGAGGCCGC [JL ENG1 3.64] (Eterna round: R96, puzzle: Exclusion NG 1) |  |  |  | 31.5 | 15.6 | 17.8
10 | GCAAGCUUAAUCAGUAUGAACAUGAGGAUCACCCAUGUAUAAGGUAAUCCUUUUGGGCCCUUUAUUACUCGUCUUAU [JR_STOV1_Sub028] (Eterna round: R97, puzzle: Sensor, turn-off variant 1) |  |  |  | 322 |  | 405
11 | UGUUGUUCAGGAUAUGAUGUAUAAUACAUGAGGAUCACCCAUGUAGAUCCUGAUUUGGCGUCAGAAGGGAAUGUUG [salish99_ex5_r4_106] (Eterna round: R97, puzzle: Exclusion 5) |  |  |  | 41 |  | 33.2
12 | UAAUACAAGCAAAGAUCUUACAUGAGGAUCACCCAUGUGCUCGUCUUAUAAAGUACUAUCACGAAAGUGAUAGUACA [Mat - Sensor v3 - turn-off var 1 - Eli Mod - D93] (puzzle: Sensor v3, turn-off variant 1) | 20.4 | 181 | 31.9 |  |  | 
13 | UUUUUUGUUGUGAGGAUAUCGUUGUUGUUGUGGAUCGAGAAGGCACAUGAGGAUCACCCAUGUUUGUUGUGGUU [JR_BMOE4_Sub086] (puzzle: Brourd's mod of Exclusion 4) |  | 83.7 |  |  |  | 
14 | AACUCUGAGAAGGAUAUGGUACGGGAAAUGGUACCAGAAGGUUUCACAUGAGGAUCACCCAUGUCGAAUAGUGA [EX6 #68] (Eterna round: R97, puzzle: Exclusion 6) |  |  |  | 28.8 |  | 27.4
15 | AGUGUGUGGCAGGAUAUUCUAAUCUUUAGGAGGGAAGAAGGGUCUACAUGAGGAUCACCCAUGUAAGCGGUUGA [Ex6 #40] (Eterna round: R97, puzzle: Exclusion 6) |  |  |  | 221 |  | 75.3
16 | AAGUAUAGAGGAUAUAGUAGGUACAACAUGAGGAUCACCCAUGUUCUUCAUAACGUAUUUCUAGAAGGCUGAUAAA [EX-5 Malc#27] (puzzle: Exclusion 5) |  | 174 |  |  |  | 
17 | AUGCUCCGUGUAGGAUAUCGCCGUAUUACUCGGCGAGAAGGACAUGAGGAUCACCCAUGUAUGUUAUUAUCACGUGUGGCGCGC [Design 46] (Eterna round: R96, puzzle: Exclusion NG 1) |  |  |  | 35.2 | 15.4 | 18.6

Row | Sequence | apparent KD of MS2 coat protein [1] [nM] | apparent KD of MS2 coat protein [2] [nM] | apparent KD of MS2 coat protein [3] [nM] | apparent KD of MS2 coat protein (input ligand: FMN 200 uM) [nM] | apparent KD of MS2 coat protein [4] [nM] | apparent KD of MS2 coat protein (input ligand: none) [nM]
18 | AUAAAUUUAGAGGAUAUCUUAUAUGGGCGACCGAGAGAAGGCUGGACAUGAGGAUCACCCAUGUGCUUCGGUGA [Eternabot (L1) Solution 96] (Eterna round: R97, puzzle: Exclusion 6) |  |  |  | 67.5 |  | 75
19 | GAGCAGCGAGGAUAUACAGACGGGUCCAGUACGUGUCUUGGACUUGAGGAUCACCCAAGUAGAAGGCGCCACAG [salish99_ex2_r4_605] (Eterna round: R97, puzzle: Exclusion 2) |  |  |  | 42.6 |  | 25.8
20 | UUGUUGUAUGUAGGAUAUGCAUGUUAUUAUUAUGCAGAAGGACAUGAGGAUCACCCAUGUAUAUUAUUAUUAUAUGUUAUAUAU [Title] (Eterna round: R96, puzzle: Exclusion NG 1) |  |  |  | 22.2 | 17.9 | 23.9
21 | UAAUUUAGUGUGAGGAUAUGCUGGUCGAUAGAUCAGCAGAAGGCACAUGAGGAUCACCCAUGUAAUAUAUUAAA [Mat - Exclusion 4 - JL Mod - D35] (puzzle: Brourd's mod of Exclusion 4) | 218 | 62.4 | 60.2 |  |  | 
22 | UUAUUAUAUGUAGGAUAUGCAUAUUAUUAUUAUGCAGAAGGACAUGAGGAUCACCCAUGUAUAUUAUUAUUAUAUAUUAUGUAU [Title] (Eterna round: R96, puzzle: Exclusion NG 1) |  |  |  |  | 27.5 | 
23 | CGUGGACUAGGAUAUUUACGAGGCUACAUGAGGAUCACCCAUGUGUUCUCGAGUACCAUGAAAGAAGGAGUAGCGA [Betiatte] (puzzle: Exclusion 5) |  | 12 |  |  |  | 
24 | UUUGUAUAUGAAGGAUAUACUUAACAUGAGGAUCACCCAUGUGGUGUUGUGAGUGAGUGAGUUUAGUAGAAGGUCAAUGAUUUU [JMF's solution 71] (Eterna round: R96, puzzle: Exclusion NG 2) |  |  |  | 531 | 218 | 317
25 | AACAGUACAGGAUAUACAUGAGGAUCACCCAUGUGAAGAAUAAGUGGAGUACCACAAAGUAGAAGGGUACUGGA [Ruby 88] (Eterna round: R96, puzzle: Exclusion 3) |  |  |  |  | 21.5 | 
26 | GGUGCGUAUGUGAGGAUAUGCUGGUCCUUGGAUCAGCAGAAGGCACAUGAGGAUCACCCAUGUGGUGUCGUACU [salish99_Bmod_Ex4_013] (puzzle: Brourd's mod of Exclusion 4) |  | 266 |  |  |  | 
27 | UUCUUGGCAGGAUAUGCUCUUUUAGACAUGAGGAUCACCCAUGUGUUUAUUCUUUUUUUUGCAGAAGGGCCUUAAU [JR_E5_Sub044] (puzzle: Exclusion 5) |  | 87.9 |  |  |  | 
28 | UAUUAAACAAGCAGGUCCCACAUGAGGAUCACCCAUGUGCUCGUCUUAUAAGGUACUGUGACGAAAGUCACGGUACC [Elimod 16 - Jieux - Sensor, turn-off variant 1] (Eterna round: R97, puzzle: Sensor, turn-off variant 1) |  |  |  | 37.2 |  | 40.1
29 | AAUGAUUGACGAGGAUAUUGUGGUGAAACACGACGAGAAGGCGUAUGUCACAUGAGGAUCACCCAUGUGAACUUUGUGGAUAUA [Ex NG1 #70] (Eterna round: R96, puzzle: Exclusion NG 1) |  |  |  | 30.4 | 33.3 | 38.8
30 | UGUAAGCUAGGAUAUGCUUUGGGAAAGCAUUCCUUCGAUAAACUUGAGGAUCACCCAAGUAGAAGGAGCUUACC [salish99_ex2_r4_008] (Eterna round: R97, puzzle: Exclusion 2) |  |  |  | 12.7 |  | 10.9
31 | ACUAGAUGAGGAUAUGCAUGUUUUCAUGUUCUUCUAGAUUAACAUGAGGAUCACCCAUGUAGAAGGCGUCUUUU [Exclusion 2 - 31] (puzzle: Exclusion 2) |  | 22.4 |  |  |  | 
32 | AAGCAGCGAGGAUAUGCUUGAGCGUGUCCUAGUUGAAAUAAACUUGAGGAUCACCCAAGUAGAAGGCGCAGCCC [Rivezaed] (Eterna round: R97, puzzle: Exclusion 2) |  |  |  | 135 |  | 49.1
33 | ACAUGUAUUGCAGGAUAUGGGACACAUGAGGAUCACCCAUGUGACUACAUGUCAUGCCACGGGUCUCAGAAGGGUAUGUACAUG [Ex NG2 #41] (Eterna round: R96, puzzle: Exclusion NG 2) |  |  |  | 23.3 | 12.1 | 14.9
34 | AAUAACAAGCCGAUCCUAAACAUGAGGAUCACCCAUGUGCUCGUCUUGUAAAGUACUAUCACGAAAGUGAUAGUACA (Eterna round: R96, puzzle: Sensor v3, turn-off variant 1) |  |  |  | 18.1 | 220 | 19.3

Source: the supplement of paper PMC9170038
